In patent US20170051072A1 one finds EC50 data, which are given here for one substance.

Experiment [1] has as its target human mesothelin with His-tag (in house) (human) (UniProt Q13421). Description: ELISA, IgG on captured His-huMesothelin (in house).
Experiment [2] has as its target human mesothelin with His-tag (R&D Systems) (human) (UniProt Q13421). Description: ELISA, IgG on captured His-huMesothelin (R&D).

human mesothelin with His-tag (in house) (human), sequence (Q13421 other isoform, or with tags, fused parts or gaps limits assumed): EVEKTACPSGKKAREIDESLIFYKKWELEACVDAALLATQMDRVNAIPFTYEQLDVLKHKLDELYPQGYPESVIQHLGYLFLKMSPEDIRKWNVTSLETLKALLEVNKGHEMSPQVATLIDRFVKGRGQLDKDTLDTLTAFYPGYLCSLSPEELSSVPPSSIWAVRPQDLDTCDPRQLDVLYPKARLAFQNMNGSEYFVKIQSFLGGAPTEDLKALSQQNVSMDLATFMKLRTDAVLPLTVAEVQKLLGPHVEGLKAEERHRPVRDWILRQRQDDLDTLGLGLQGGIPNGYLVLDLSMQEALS
human mesothelin with His-tag (R&D Systems) (human), sequence (Q13421 other isoform, or with tags, fused parts or gaps limits assumed): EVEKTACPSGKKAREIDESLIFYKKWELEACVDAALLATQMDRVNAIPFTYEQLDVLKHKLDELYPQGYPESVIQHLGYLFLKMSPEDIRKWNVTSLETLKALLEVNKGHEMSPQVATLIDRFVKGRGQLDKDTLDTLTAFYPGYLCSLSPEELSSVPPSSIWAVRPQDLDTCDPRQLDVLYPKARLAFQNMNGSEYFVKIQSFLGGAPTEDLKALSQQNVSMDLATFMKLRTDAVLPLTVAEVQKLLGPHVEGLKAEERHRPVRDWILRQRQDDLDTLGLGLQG

Take “IgG VH HC_SS1/15436 + VL LC_SS1/15455 (antibody)”: the EC50 came out at 0.0411 µg/mL in experiment [1] and 0.0461 µg/mL in experiment [2].
